# Test results published in patent publication US9644205B2, “Synthetic promoter for modulating gene expression” (The Regents of the University of California, priority 2012, dated 2017).
# B1: BL-1: synthetic 550 bp promoter, SEQ ID NO: 1; three repeated C2/E2/G2/A3/CRE1 and three repeated GG2/A2/C1/E1/A1 motifs (nucleic acid)
# DNA: GACAGCAGCGCAAAGAGCCCCGCCCTGCAGCCTCCAGCTCTCCTGGTCTAATGTGGAAAGTGGCCCAGGTGAGGGCTTTGCTCTCCTGGAGACATTTGCCCCCAGCTGTGAGCAGGGACAGGTCTGGCCACCGGGCCCCTGGTTAAGACTCTAATGACCCGCTGGTCCCAGGGACAGGTCTGGCCACCGGGCCCCTGGTTAAGACTCTAATGACCCGCTGGTCCCAGGGACAGGTCTGGCCACCGGGCCCCTGGTTAAGACTCTAATGACCCGCTGGTCCGGAAATGGTCCGGAAATTGCAGCCTCAGCCCCCAGCCATCTGCCGACCCCCCCACCCCAGGCCCTAATGGGCGGAAATGGTCCGGAAATTGCAGCCTCAGCCCCCAGCCATCTGCCGACCCCCCCACCCCAGGCCCTAATGGGCGGAAATGGTCCGGAAATTGCAGCCTCAGCCCCCAGCCATCTGCCGACCCCCCCACCCCAGGCCCTAATGGGCGGTAGGGGAGATGGGCTCTGAGACTATAAAGCCAGCGGGGGCCCAGCAGCCCTC
# Columns and labels:
# [1] = test system: HPDE cells; experiment: CAT expression in HPDE cells (PDX-1 negative, PDX-1 co-transfection dose curve); format: cell-based, human
# Description: FIG. 7 is a plot of the assay of the BL-CAT driving CAT expression in response to increasing doses of PDX-1 in human pancreatic ductal epithelial cells, which have very low expression of PDX-1.
# FIG. 8 is a plot of another assay of the BL-CAT driving CAT expression in response to increasing doses of PDX-1 in human pancreatic ductal epithelial cells, which have very low expression of PDX-1.
# (§1) In our methodological approach, activity and specificity of BLs were determined by CAT and mCherry assays in PDX-1+PC and HEK293 cell lines vs PDX-1—human pancreatic ductal epithelial (HPDE) cells. […] Cytotoxicity was determined by MTS assay. 1M PANC-1 cells were injected ip into 65 SCID mice; two weeks later, mice received BL1-vTK, RIP-vTK, CMV-vTK, or pVAX1 empty vector control (35 ug liposomal DNA/mouse/tail vein followed by two weeks of GCV (40 mg/kg, ip, bid; N=15/group). Glucose levels were measured on days 14 and 60 after treatment. Tumor volume was measured in each mouse. Statistical analysis was performed via paired T test; p<0.05=significant.
# [2] = test system: human embryonic kidney cell line 293 stably transfected with PDX-1 or mutated PDX-1 P47D; experiment: relative CAT expression in 293 PDX-1 vs 293 P47D cells; format: cell-based; settings: 293 stably transfected with PDX-1 or PDX-1 P47D; compared to RIP and three HIP fragments
# Excerpt: FIG. 6 is a plot of the assay of the relative CAT expression being driven by BL-1 promoter compared to RIP and three HIP fragments in human embryonic kidney cell line 293, (which have no PDX-1 expression), stably transfected with PDX-1 or mutated PDX-1 P47D.
# [3] = test system: PDX-1 stably expressing PC and HEK cells; experiment: CAT and mCherry reporter assays in PDX-1+ PC and HEK293 cell lines; format: cell-based, human
# Description: as §1
# [4] = test system: PANC-1; experiment: relative CAT expression in PANC-1 cells; format: cell-based, human; settings: PANC-1 (high PDX-1); compared to RIP and HIP 1400
# Description: FIG. 4 is a plot of the assay of the relative CAT expression being driven by BL-1 promoter compared to RIP and HIP 1400 promoter constructs in human pancreas cancer cell line, PANC-1, which have high expression of PDX-1, and benign human pancreatic ductal epithelial cell line HPDE, which have no expression of PDX-1 and are a negative control cell line.
# as §1
# [5] = test system: Beta TC-6 cells; experiment: CAT assay for promoter activity in Beta TC-6 cells; format: cell-based, mouse; settings: compared to human insulin promoter fragments
# Description: FIG. 2 is a plot of the CAT assay for HIP activity in Beta TC-6 cells.
# FIG. 3 is a plot of the CAT assay for HIP promoter construct expression activity BL promoter construct expression activity in Beta TC-6 cells.
# as §1
# [6] = test system: MIA PaCa2; experiment: relative CAT expression in MIA PaCa2 vs MIA PaCa2 PDX-1 cells; format: cell-based, human; settings: MIA PaCa2 (very low PDX-1) vs MIA PaCa2 stably transfected with PDX-1; compared to RIP and three HIP fragments
# Excerpt: FIG. 5 is a plot of the assay of the relative CAT expression being driven by BL-1 promoter compared to RIP and three HIP fragments in human pancreas cancer cell line, MIA PaCa2, which have very low PDX-1 expression vs MIA PaCa2 cells stably transfected with PDX-1.
molecule,measurement,setting,value
B1,CAT expression in response to increasing doses of PDX-1,"[1]; HPDE cells, co-transfection of PDX-1",dose dependent manner
same,CAT expression,[1]; PDX-1-negative cell lines,No CAT expression was detected
same,relative CAT expression,[2],far more effective than RIP or HIP
same,activity of expressing reporter genes,"[3]; among the BL promoters, CAT and mCherry assays",highest activity
same,CAT and mCherry reporter expression,[3]; vs CMV-driven expression,equal to CMV-driven expression
same,CAT and mCherry reporter expression,"[3]; vs RIP-driven expression, p<0.05",significantly greater than RIP-driven expression
same,relative CAT expression,[4],to a far greater degree than HIP and RIP
same,expression of CAT,[5],equal to or better than human insulin promoter fragments
same,relative CAT expression,[6],more effective than RIP or HIP
